Measurements reported in patent US20110262358A1 (SAPPORO MEDICAL UNIVERSITY, published 2011).
Non-standard residues stand in square brackets, D forms with d. No end group written: not given here.

B1: or7c1_131(10) (peptide)
peptide: HYTV[code i]MNPQL
notes: Synthetic OR7C1-derived peptide, printed HYTViMNPQL with a lower-case i

Target: T1, HLA-A24 molecule (HLA-A2402) expressed on T2-A24 cells (human)
T1 construct: whole, on cells; MHC class I molecule on T2-A24 cells
Test: HLA-A24 stabilisation on T2A24 cells, flow cytometry with anti-HLA-A24 antibody

Binding result, binds:
MYTMVTPML [or7c1_277(9)], MYLVTFTGNL [or7c1_34(10)], FYGTGFGVYL [or7c1_251(10)], B1, TYAGCLSQIF (also called peptide 93(10)) [or7c1_93(10)]
